Experimental data published in patent USRE49477 (THOMAS JEFFERSON UNIVERSITY, dated 2023).
One block for each binder: values may come before it.

Assays:
[1] = target: T1, human procollagen I α2 chain (human, UniProt P08123 23-1366); experiment: Western blot, procollagen I chains on membrane, anti-His-HRP detection
T1 construct: The separated chain as it stood on the Western blot membrane; With the chimeric IgG, a partially degraded form was also positive; also called Pro-α2; collagen α2-chain

[2] = target: T1, human procollagen I α2 chain; experiment: Western blot, procollagen I chains on membrane, anti-human γ-HRP detection
[3] = target: T1, human procollagen I α2 chain; experiment: Western blot, procollagen I chains on membrane, anti-FLAG-HRP detection

T1 sequence (P08123 23-1366 limits assumed): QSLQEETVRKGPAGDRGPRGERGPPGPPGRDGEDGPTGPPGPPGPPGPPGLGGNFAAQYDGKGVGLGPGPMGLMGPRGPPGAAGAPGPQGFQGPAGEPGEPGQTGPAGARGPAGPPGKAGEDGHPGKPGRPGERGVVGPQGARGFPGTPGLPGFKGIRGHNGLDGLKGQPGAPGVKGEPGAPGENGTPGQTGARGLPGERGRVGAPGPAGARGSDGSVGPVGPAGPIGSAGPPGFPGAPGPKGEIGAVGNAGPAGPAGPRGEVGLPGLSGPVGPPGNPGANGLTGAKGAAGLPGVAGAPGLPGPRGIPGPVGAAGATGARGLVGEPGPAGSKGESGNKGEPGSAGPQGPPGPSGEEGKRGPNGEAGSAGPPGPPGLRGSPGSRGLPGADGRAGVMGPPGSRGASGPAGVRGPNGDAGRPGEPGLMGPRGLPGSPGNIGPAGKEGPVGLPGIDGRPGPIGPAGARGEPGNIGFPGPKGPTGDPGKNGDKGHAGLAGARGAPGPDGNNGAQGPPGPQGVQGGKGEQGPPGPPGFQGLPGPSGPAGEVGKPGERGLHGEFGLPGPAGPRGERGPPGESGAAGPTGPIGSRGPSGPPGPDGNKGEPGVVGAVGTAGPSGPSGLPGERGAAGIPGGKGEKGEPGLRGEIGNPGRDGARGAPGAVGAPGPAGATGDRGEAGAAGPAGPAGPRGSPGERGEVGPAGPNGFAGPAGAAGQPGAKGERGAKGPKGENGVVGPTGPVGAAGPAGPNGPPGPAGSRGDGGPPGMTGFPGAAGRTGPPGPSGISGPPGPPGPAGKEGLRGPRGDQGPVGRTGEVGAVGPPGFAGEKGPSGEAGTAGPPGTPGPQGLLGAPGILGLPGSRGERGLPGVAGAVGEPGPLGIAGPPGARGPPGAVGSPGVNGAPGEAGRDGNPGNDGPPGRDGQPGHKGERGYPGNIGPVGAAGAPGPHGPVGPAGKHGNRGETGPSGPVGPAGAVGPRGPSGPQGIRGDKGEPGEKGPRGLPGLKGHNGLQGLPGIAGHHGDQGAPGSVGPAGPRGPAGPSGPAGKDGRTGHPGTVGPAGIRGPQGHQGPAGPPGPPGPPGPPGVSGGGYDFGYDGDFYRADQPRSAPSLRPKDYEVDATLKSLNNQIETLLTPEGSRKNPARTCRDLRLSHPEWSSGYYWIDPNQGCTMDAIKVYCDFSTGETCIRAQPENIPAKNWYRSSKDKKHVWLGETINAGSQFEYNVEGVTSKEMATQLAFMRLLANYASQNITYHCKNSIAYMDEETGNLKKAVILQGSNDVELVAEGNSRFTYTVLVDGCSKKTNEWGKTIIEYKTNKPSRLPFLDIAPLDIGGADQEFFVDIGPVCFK

binding result [1]: binds
B1: His-tagged yeast-derived A_L_K scFv variant (scFv)
scFv: QIQLVQSGPELKKPGETVKISCKASGYTFTDYPLHWVKQAPGKGLQWMAWINTETGEPTYADDFTGRFAFSLETSASTAYLQINNLKNEDTATYFCVRGYYYYWGQGTTLSVSSGGGGSGGGGSGGGGSGGGGSGGGGSGGGGSDIVMSQSPSSLAVSAGEKVTMSCKSSQSLLNSRTRKNNLAWYQQKPGQSPKLLIYWASTRESGVPDRFTGSGSGTDFTLTISSVQAEDLAVYYCKQSYNLWTFGGGTKLEIKRHHHHHH
notes: It was secreted from yeast using pPIC-9K; also called yeast scFv variant

binding result [2]: binds
B2: mouse-human chimeric IgG consisting of the mVH-hγ and mVL-hκ chains (antibody, V domains shown)
VH: QIQLVQSGPELKKPGETVKISCKASGYTFTDYPLHWVKQAPGKGLQWMAWINTETGEPTYADDFTGRFAFSLETSASTAYLQINNLKNEDTATYFCVRGYYYYWGQGTTLSVSS
VL: DIVMSQSPSSLAVSAGEKVTMSCKSSQSLLNSRTRKNNLAWYQQKPGQSPKLLIYWASTRESGVPDRFTGSGSGTDFTLTISSVQAEDLAVYYCKQSYNLWTFGGGTKLEIKR
notes: The constant regions are human IgG1 γ (pFUSE-CHIg-hG1) and human κ (pFUSE2-CLIg-hk); The antibody was expressed in CHO cells and purified on Protein-L; also called chimeric antibody; CHO-IgG

binding result [3]: binds
B3: bacterial-derived scFv variant (anti-α2Ct single chain antibody, FLAG-tagged) (scFv)
scFv: MDIVMSQSPSSLAVSAGEKVTMSCKSSQSLLNSRTRKNNLAWYQQKPGQSPKLLIYWASTRESGVPDRFTGSGSGTDFTLTISSVQAEDLAVYYCKQSYNLWTFGGGTKLEIKVDGGGGSGGGGSGGGGSLEQIQLVQSGPELKKPGETVKISCKASGYTFTDYPLHWVKQAPGKGLQWMAWINTETGEPTYADDFTGRFAFSLETSASTAYLQINNLKNEDTATYFCVRGYYYYWGQGTTLSVSSDYKDDDDK
